Patent US20020150536A1

How the values were obtained:
αvβ3 integrin (human) [1] = biological target: αvβ3 integrin (human) (UniProt P06756); assay: competition ELISA, displacement of biotinylated fibrinogen (6 nM) from immobilized αvβ3 (FIG. 4B)
αvβ3 integrin (human) [2] = biological target: αvβ3 integrin (human) (UniProt P06756); assay: competition ELISA, displacement of biotinylated vitronectin (10 nM) from immobilized αvβ3 (FIG. 4A)

- IC50 (αvβ3 integrin (human) [1]): 6.3 nM
- IC50 (αvβ3 integrin (human) [2]): 2.7 nM
Substance: αvβ3-specific monoclonal antibody LM609
